Data set [1] concerns the molecule itself. The data set is described as follows: AUC; sedimentation equilibrium, without ligand; 1 to 8 μM receptor, 10 mM Hepes pH 8.0, 150 mM NaCl, 20 °C, three speeds; dimer to monomers.
Data set [2] deals with the molecule itself. Description: AUC; sedimentation equilibrium with 50-70 μM LIN-3^EGF added; 1 to 8 μM receptor, 10 mM Hepes pH 8.0, 150 mM NaCl, 20 °C, three speeds; dimer to monomers.
Data set [3] deals with the molecule itself. Description: SEC; unliganded sLET-23 during initial purification; Superose 6 10/300 GL, 10 mM Hepes pH 8.0, 150 mM NaCl. (SEC sorts molecules by how far they enter the pores of the column.)
Data set [4] deals with the molecule itself. The data set is described as follows: SAXS; home source, I(0)/c, without ligand; 4 °C, pH 8.0, 1.2 to 5 mg/ml protein.

B1: sLET-23ΔIV/V (LET-23 extracellular region with domains IV and V deleted) (domain or fragment, C. elegans, UniProt P24348 21-539, looked up)
chain: FGNSNAQLWKRCVSPQDCLCSGTTNGISRYGTGNILEDLETMYRGCRRVYGNLEITWIEANEIKKWRESTNSTVDPKNEDSPLKSINFFDNLEEIRGSLIIYRANIQKISFPRLRVIYGDEVFHDNALYIHKNDKVHEVVMRELRVIRNGSVTIQDNPKMCYIGDKIDWKELLYDPDVQKVETTNSHQHCYQNGKSMAKCHESCNDKCWGSGDNDCQRVYRSVCPKSCSQCFYSNSTSSYECCDSACLGGCTGHGPKNCIACSKYELDGICIETCPSRKIFNHKTGRLVFNPDGRYQNGNHCVKECPPELLIENDVCVRHCSDGHHYDATKDVRECEKCRSSSCPKICTVDGHLTNETLKNLEGCEQIDGHLIIEHAFTYEQLKVLETVKIVSEYITIVQQNFYDLKFLKNLQIIEGRKLHNVRWALAIYQCDDLEELSLNSLKLIKTGAVLIMKNHRLCYVSKIDWSSIITSKGKDNKPSLAIAENRDSKLCETEQRVCDKNCNKRGCWGKEPEDCLE
notes: signal peptide in the construct; LET-23 of C. elegans, extracellular domains I-III (domains IV and V deleted); source: Sf9 cells (baculovirus), purified from conditioned medium (Ni-NTA, cation exchange, Superose 6)
For B1, the Kd came to 30 µM in data set [1] and 5 µM in data set [2].

B2: LET-23 extracellular region (sLET-23) (domain or fragment, C. elegans, UniProt P24348 21-819, looked up)
chain: FGNSNAQLWKRCVSPQDCLCSGTTNGISRYGTGNILEDLETMYRGCRRVYGNLEITWIEANEIKKWRESTNSTVDPKNEDSPLKSINFFDNLEEIRGSLIIYRANIQKISFPRLRVIYGDEVFHDNALYIHKNDKVHEVVMRELRVIRNGSVTIQDNPKMCYIGDKIDWKELLYDPDVQKVETTNSHQHCYQNGKSMAKCHESCNDKCWGSGDNDCQRVYRSVCPKSCSQCFYSNSTSSYECCDSACLGGCTGHGPKNCIACSKYELDGICIETCPSRKIFNHKTGRLVFNPDGRYQNGNHCVKECPPELLIENDVCVRHCSDGHHYDATKDVRECEKCRSSSCPKICTVDGHLTNETLKNLEGCEQIDGHLIIEHAFTYEQLKVLETVKIVSEYITIVQQNFYDLKFLKNLQIIEGRKLHNVRWALAIYQCDDLEELSLNSLKLIKTGAVLIMKNHRLCYVSKIDWSSIITSKGKDNKPSLAIAENRDSKLCETEQRVCDKNCNKRGCWGKEPEDCLECKTWKSVGTCVEKCDTKGFLRNQTSMKCERCSPECETCNGLGELDCLTCRHKTLYNSDFGNRMECVHDCPVSHFPTQKNVCEKCHPTCYDNGCTGPDSNLGYGGCKQCKYAVKYENDTIFCLQSSGMNNVCVENDLPNYYISTYDTEGVIETHCEKCSISCKTCSSAGRNVVQNKCVCKHVEYQPNPSERICMDQCPVNSFMVPDTNNTVCKKCHHECDQNYHCANGQSTGCQKCKNFTVFKGDIAQCVSECPKNLPFSNPANGECLDYDIASRQRKTRM
notes: signal peptide in the construct; LET-23, the C. elegans EGFR orthologue, extracellular region with domains I-V; Glycosylated (six predicted N-glycosylation sites); Constitutive dimer by SEC and SE-AUC; also called isolated LET-23 extracellular region; C. elegans EGFR extracellular region; source: Sf9 cells (baculovirus), purified from conditioned medium (Ni-NTA, cation exchange, Superose 6)
As to B2, the “stoichiometry N” value in data set [3] came to 2. Also, in data set [1], the Kd is < 1 µM.

B3: sLET-23ΔV (LET-23 extracellular region with domain V deleted) (domain or fragment, C. elegans, UniProt P24348 21-645, looked up)
chain: FGNSNAQLWKRCVSPQDCLCSGTTNGISRYGTGNILEDLETMYRGCRRVYGNLEITWIEANEIKKWRESTNSTVDPKNEDSPLKSINFFDNLEEIRGSLIIYRANIQKISFPRLRVIYGDEVFHDNALYIHKNDKVHEVVMRELRVIRNGSVTIQDNPKMCYIGDKIDWKELLYDPDVQKVETTNSHQHCYQNGKSMAKCHESCNDKCWGSGDNDCQRVYRSVCPKSCSQCFYSNSTSSYECCDSACLGGCTGHGPKNCIACSKYELDGICIETCPSRKIFNHKTGRLVFNPDGRYQNGNHCVKECPPELLIENDVCVRHCSDGHHYDATKDVRECEKCRSSSCPKICTVDGHLTNETLKNLEGCEQIDGHLIIEHAFTYEQLKVLETVKIVSEYITIVQQNFYDLKFLKNLQIIEGRKLHNVRWALAIYQCDDLEELSLNSLKLIKTGAVLIMKNHRLCYVSKIDWSSIITSKGKDNKPSLAIAENRDSKLCETEQRVCDKNCNKRGCWGKEPEDCLECKTWKSVGTCVEKCDTKGFLRNQTSMKCERCSPECETCNGLGELDCLTCRHKTLYNSDFGNRMECVHDCPVSHFPTQKNVCEKCHPTCYDNGCTGPDSNLGYGGCK
notes: signal peptide in the construct; LET-23 of C. elegans, extracellular domains I-IV (domain V deleted); Dimer by SEC-MALS, SE-AUC and SAXS; source: Sf9 cells (baculovirus), purified from conditioned medium (Ni-NTA, cation exchange, Superose 6)
Regarding B3, in data set [4], the “stoichiometry N” value amounted to 2.

The term Kd denotes the concentration at which binding is half-saturated. Read a low Kd as higher affinity. Usually stoichiometry N stands for a count of units in the complex or per binding partner.

Values taken from PMC4465127 (Nature Communications, 2015).
